The chains are these.
B1: ANGPTL4: Recombinant human ANGPTL4 (Angiopoietin-like 4), full length, SEQ ID NO: 1, purchased from R&D Systems (protein, listed as Homo sapiens)
chain: MSGAPTAGAALMLCAATAVLLSAQGGPVQSKSPRFASWDEMNVLAHGLLQLGQGLREHAERTRSQLSALERRLSACGSACQGTEGSTDLPLAPESRVDPEVLHSLQTQLKAQNSRIQQLFHKVAQQQRHLEKQHLRIQHLQSQFGLLDHKHLDHEVAKPARRKRLPEMAQPVDPAHNVSRLHRLPRDCQELFQVGERQSGLFEIQPQGSPPFLVNCKMTSDGGWTVIQRRHDGSVDFNRPWEAYKAGFGDPHGEFWLGLEKVHSITGDRNSRLAVQLRDWDGNAELLQFSVHLGGEDTAYSLQLTAPVAGQLGATTVPPSGLSVPFSTWDQDHDLRRDKNCAKSLSGGWWFGTCSHSNLNGQYFRSIPQQRQKLKKGIFWKTWRGRYYPLQATTMLIQPMAAEAAS
B2: nANGPTL4: N-terminal fragment of ANGPTL4, aa 26-164, SEQ ID NO: 24, purchased from R&D Systems (protein)
chain: GPVQSKSPRFASWDEMNVLAHGLLQLGQGLREHAERTRSQLSALERRLSACGSACQGTEGSTDLPLAPESRVDPEVLHSLQTQLKAQNSRIQQLFHKVAQQQRHLEKQHLRIQHLQSQFGLLDHKHLDHEVAKPARRK
modifications: nANGPTL4
B3: cANGPTL4: C-terminal fragment of ANGPTL4, aa 164-406, fibrinogen-like domain, purchased from R&D Systems (protein, listed as Homo sapiens)
chain: RLPEMAQPVDPAHNVSRLHRLPRDCQELFQVGERQSGLFEIQPQGSPPFLVNCKMTSDGGWTVIQRRHDGSVDFNRPWEAYKAGFGDPHGEFWLGLEKVHSITGDRNSRLAVQLRDWDGNAELLQFSVHLGGEDTAYSLQLTAPVAGQLGATTVPPSGLSVPFSTWDQDHDLRRDKNCAKSLSGGWWFGTCSHSNLNGQYFRSIPQQRQKLKKGIFWKTWRGRYYPLQATTMLIQPMAAEAAS

The values below come from US20250163116A1, “NEW METHOD TO TREAT INFECTIOUS DISEASES” (INSERM (INSTITUT NATIONAL DE LA SANTÉ ET DE LA RECHERCHE …, priority 2022, published 2025).

In this assay the test system is HDMECs infected with Nm 2C4.3. The assay can be described thus: Integrity of HDMEC monolayers infected with N. meningitidis (VE-cadherin at intercellular junctions, immunofluorescence). In kind it is cell-based, human. As to conditions: 1 μg/mL added 30 min after initiation of Nm infection, 2 h 30. On the procedure:
FIG. 1. Exogenous ANGPTL4 exerts protective effects on dermal microvascular endothelial cells infected by N. meningitidis. A. HDMECs were infected with Nm 2C4.3 for 30 min and treated with 1 μg/mL of recombinant human ANGPTL4 for 2 h 30. Cells were fixed and stained for cellular actin, VE-cadherin and DAPI and analyzed by fluorescent microscopy. Quantifications of VE-cadherin enrichment at intercellular junctions and of intercellular spaces area were performed on 30 fields with Image J software. Kruskal-Wallis test ** P<0.001; P<0.0001. B. HDMEC were either uninfected or infected with N. meningitidis 2C4.3 for 30 min and treated with 1 μg mL−1 of recombinant human ANGPTL4, its N-terminal portion (nANGPTL4) or its C-terminal portion (cANGPTL4) for 2 h 30. Caspase-3/7 reagent was added to detect apoptosis in real time over 9 h using the IncuCyte® Live-Cell Analysis System
FIG. 2: Vascular protection is conferred by the N-terminal part of ANGPTL4. A, Schematic representation of ANGPTL4 structure. ANGPTL4 contains a N-terminal portion (nANGPTL4, aa 26-164) linked to a C-terminal portion (cANGPTL4, aa 164-406) by a cleavable linker. nANGPTL4 contains a highly conserved lipoprotein lipase (LPL) binding domain (aa 44-55), two cysteines on position 76 and 80 involved in protein oligomerization and a coiled-coil domain (aa 100-143). The C-terminal portion encodes a fibrinogen-like domain. B, HDMECs were infected with Nm 2C4.3 for 30 min and treated with 1 μg/mL of recombinant human ANGPTL4, nANGPTL4 or cANGPTL4 for 2 h 30. Cells were fixed and stained for cellular actin, VE-cadherin and DAPI and analyzed by fluorescent microscopy. B. Quantifications of VE-cadherin enrichment at intercellular junctions and of intercellular spaces area were performed on 30 fields with Image J software. Kruskal-Wallis test ** P<0.001, *** P<0.0001 of four independent experiments performed in triplicate.
FIG. 3: Vascular protection is conferred by a novel binding motif (aa 66-80) present in the N-terminal part of ANGPTL4. A, the indicated peptides were derived from nANGPTL4. B, HDMECs were infected with Nm 2C4.3 for 30 min and treated with 1 μg/mL of each peptides. Quantifications of VE-cadherin enrichment at intercellular junctions was performed on 30 fields with Image J software.
FIG. 4: Vascular protection is conferred by interaction of nANGPTL4 with Syndecan-4. A, HDMECs were infected with Nm 2C4.3 for 30 min and treated with 1 μg/mL of recombinant human ANGPTL4, nANGPTL4 or cANGPTL4 in the absence or in the presence of anti-SDC4 antibody for 2 h 30. Cells were fixed and stained for cellular actin, VE-cadherin and DAPI and analysed by fluorescent microscopy. Quantifications of VE-cadherin enrichment at intercellular junctions and of intercellular spaces area were performed on 30 fields with Image J software. Kruskal-Wallis test ** P<0.001, **** P<0.00001, ns1 P=0.2172; ns2 P>0.999 of four independent experiments performed in triplicate. B, HDMECs were transfected with small interfering RNA (siRNA) against SDC4 or non-targeting siRNA controls for 48 h, infected with Nm 2C4.3 for 30 min and treated with 1 μg/mL of recombinant human ANGPTL4, for 2 h 30. Quantifications of VE-cadherin enrichment at intercellular junctions and of intercellular spaces area were performed on 30 fields with Image J software. Kruskal-Wallis test ** P<0.001, *** P<0.0001, of two independent experiments performed in triplicate.
The day of infection, a suspension of the bacteria from an overnight culture on GCB agar plate was adjusted to OD600=0.05 and incubated for 2 h at 37° C. in a pre-warmed cell culture medium. Cells were infected with bacteria at a multiplicity of infection (MOI) of 100 bacteria per cell (OD=0.1) for 30 minutes, washed twice to remove non-adherent bacteria and infection was allowed to proceed for various periods of time. Cells were then washed and fixed in 4% paraformaldehyde for immunofluorescence analysis. […]
Consider B1, for which the “protective effect on monolayer integrity (adherens junctions, cell detachment) of infected HDMECs” value (shortened to “protective effect on monolayer integrity”) was “entirely preserved the integrity of this monolayer”.

Regarding B2, the “protective effect on monolayer integrity” value is recorded as “sufficient to maintain cell monolayer integrity upon infection”.

On to B3, for which the “protective effect on monolayer integrity” value was “no significant protective effect”.
